The supplement of paper PMC10065799, “High-throughput profiling of sequence recognition by tyrosine kinases and SH2 domains using bacterial peptide display” (eLife, 2023)

Assays:
c-Abl (mouse) = assay: phosphorylation enrichment, bacterial display (enrichment ratio); higher = better substrate or ligand; peptides without Tyr show the background
Jak2 = Jak2 (UniProt O60674); assay: as above
EPHB2 = EPHB2 (UniProt P29323); assay: as above
FGFR3 = FGFR3 (UniProt P22607); assay: as above
Fer (mouse) = assay: as above
Fyn = Fyn (UniProt P06241); assay: as above
Hck = Hck (UniProt P08631); assay: as above
c-Src = assay: as above
MERTK = MERTK (UniProt Q12866); assay: as above
MERTK, sequence (Q12866 whole entry, looked up): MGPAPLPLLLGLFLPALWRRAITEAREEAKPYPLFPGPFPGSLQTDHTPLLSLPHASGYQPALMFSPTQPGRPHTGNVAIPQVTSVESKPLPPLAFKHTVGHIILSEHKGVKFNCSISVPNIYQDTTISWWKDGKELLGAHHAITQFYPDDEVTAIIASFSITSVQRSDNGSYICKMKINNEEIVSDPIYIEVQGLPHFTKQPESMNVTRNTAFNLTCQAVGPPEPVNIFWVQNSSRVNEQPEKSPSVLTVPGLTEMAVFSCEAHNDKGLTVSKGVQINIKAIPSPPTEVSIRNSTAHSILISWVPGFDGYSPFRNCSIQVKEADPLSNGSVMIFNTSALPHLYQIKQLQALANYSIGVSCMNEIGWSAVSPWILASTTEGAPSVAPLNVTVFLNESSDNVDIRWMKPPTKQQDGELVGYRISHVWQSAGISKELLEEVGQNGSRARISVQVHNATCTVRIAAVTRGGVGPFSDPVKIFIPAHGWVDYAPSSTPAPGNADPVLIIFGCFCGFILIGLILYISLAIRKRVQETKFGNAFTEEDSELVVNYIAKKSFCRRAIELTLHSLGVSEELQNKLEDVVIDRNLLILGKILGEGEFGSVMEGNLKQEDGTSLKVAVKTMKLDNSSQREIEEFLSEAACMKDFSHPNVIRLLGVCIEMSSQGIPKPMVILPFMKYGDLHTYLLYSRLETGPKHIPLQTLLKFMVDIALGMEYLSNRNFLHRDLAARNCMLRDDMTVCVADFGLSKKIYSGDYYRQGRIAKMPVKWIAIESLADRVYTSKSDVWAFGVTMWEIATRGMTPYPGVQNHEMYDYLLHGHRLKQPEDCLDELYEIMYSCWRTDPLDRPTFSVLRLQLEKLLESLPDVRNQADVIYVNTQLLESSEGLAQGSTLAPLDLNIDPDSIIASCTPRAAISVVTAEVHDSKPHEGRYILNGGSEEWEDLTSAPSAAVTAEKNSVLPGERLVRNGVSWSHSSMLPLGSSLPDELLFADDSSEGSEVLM

FGFR1 = FGFR1 (UniProt P11362); assay: as above
AncSZ = assay: as above
Fes = Fes (UniProt P07332); assay: as above
Fes, sequence (P07332 whole entry, looked up): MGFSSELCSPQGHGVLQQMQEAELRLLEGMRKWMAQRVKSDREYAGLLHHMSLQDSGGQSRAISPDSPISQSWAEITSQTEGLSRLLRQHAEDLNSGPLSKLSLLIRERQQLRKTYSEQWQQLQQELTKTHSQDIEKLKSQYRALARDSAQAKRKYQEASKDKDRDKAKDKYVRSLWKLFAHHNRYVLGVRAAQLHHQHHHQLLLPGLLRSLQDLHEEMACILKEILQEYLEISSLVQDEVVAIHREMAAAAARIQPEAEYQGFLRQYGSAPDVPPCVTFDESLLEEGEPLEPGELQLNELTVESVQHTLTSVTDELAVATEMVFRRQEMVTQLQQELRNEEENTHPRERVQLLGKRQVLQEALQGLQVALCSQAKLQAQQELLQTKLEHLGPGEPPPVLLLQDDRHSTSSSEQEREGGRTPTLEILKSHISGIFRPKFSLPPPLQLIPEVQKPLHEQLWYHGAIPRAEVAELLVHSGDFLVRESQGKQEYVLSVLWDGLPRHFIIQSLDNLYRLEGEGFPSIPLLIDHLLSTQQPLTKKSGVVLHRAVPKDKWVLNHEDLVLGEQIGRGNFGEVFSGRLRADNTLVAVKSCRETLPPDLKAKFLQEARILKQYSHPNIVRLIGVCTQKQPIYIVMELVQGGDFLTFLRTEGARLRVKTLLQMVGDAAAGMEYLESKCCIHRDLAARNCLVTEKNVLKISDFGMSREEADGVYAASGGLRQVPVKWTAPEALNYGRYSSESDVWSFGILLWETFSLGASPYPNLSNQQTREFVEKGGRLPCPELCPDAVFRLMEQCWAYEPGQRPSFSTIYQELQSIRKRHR

EPHB1 = EPHB1 (UniProt P54762); assay: as above
EPHB1, sequence (P54762 whole entry, looked up): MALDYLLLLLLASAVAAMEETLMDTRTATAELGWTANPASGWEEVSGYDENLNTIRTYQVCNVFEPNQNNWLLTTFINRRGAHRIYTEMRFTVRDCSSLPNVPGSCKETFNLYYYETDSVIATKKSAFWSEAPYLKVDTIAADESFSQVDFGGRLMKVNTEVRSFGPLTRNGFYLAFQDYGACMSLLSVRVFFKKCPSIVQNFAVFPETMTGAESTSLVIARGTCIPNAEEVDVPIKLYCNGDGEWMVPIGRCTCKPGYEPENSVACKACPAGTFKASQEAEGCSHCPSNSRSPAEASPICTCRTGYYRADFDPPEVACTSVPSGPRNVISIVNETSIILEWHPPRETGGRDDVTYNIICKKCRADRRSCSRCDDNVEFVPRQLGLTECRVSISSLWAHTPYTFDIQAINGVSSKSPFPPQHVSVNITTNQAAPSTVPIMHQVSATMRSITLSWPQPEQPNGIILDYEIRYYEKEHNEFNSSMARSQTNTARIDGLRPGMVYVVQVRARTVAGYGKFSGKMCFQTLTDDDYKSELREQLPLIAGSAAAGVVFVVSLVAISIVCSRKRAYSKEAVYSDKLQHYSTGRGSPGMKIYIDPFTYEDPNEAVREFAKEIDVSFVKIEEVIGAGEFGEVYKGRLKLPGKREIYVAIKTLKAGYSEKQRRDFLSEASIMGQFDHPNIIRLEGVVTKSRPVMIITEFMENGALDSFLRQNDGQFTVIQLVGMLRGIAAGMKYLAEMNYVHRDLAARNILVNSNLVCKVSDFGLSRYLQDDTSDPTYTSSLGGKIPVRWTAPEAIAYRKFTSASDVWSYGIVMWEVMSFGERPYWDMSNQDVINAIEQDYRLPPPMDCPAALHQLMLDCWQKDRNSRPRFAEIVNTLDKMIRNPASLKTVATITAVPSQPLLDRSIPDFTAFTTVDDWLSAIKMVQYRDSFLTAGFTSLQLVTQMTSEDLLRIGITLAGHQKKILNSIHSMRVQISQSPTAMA

c-Src SH2 = assay: SH2 binding enrichment of the phosphorylated peptide, bacterial display (enrichment ratio); higher = better substrate or ligand; peptides without Tyr show the background
Grb2 SH2 = Grb2 SH2 (UniProt P62993); assay: as above
Grb2 SH2, sequence (P62993 whole entry, looked up): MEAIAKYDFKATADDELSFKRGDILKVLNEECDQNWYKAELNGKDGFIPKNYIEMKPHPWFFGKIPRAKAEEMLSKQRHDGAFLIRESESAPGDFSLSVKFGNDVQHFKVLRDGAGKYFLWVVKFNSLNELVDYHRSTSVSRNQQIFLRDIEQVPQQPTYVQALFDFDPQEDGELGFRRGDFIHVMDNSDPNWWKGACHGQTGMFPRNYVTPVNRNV

SHP2-C SH2 = assay: as above
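Throughout, for SH2 binding enrichment of the phosphorylated peptide, bacterial display: peptide library displayed on the E. coli surface as eCPX fusions, selected cells deep-sequenced, score is each peptide's frequency after selection divided by its frequency in the input.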
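Throughout, for phosphorylation enrichment, bacterial display: 11-residue human phosphosite peptides and single-mutation variants displayed on the E. coli surface, counted by deep sequencing, each peptide's frequency after selection divided by its frequency in the unselected input library; frequency after pTyr selection over input frequency; kinase dosed for 20-30% of maximal phosphorylation in three min.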

EPHB2, sequence (P29323 whole entry, looked up): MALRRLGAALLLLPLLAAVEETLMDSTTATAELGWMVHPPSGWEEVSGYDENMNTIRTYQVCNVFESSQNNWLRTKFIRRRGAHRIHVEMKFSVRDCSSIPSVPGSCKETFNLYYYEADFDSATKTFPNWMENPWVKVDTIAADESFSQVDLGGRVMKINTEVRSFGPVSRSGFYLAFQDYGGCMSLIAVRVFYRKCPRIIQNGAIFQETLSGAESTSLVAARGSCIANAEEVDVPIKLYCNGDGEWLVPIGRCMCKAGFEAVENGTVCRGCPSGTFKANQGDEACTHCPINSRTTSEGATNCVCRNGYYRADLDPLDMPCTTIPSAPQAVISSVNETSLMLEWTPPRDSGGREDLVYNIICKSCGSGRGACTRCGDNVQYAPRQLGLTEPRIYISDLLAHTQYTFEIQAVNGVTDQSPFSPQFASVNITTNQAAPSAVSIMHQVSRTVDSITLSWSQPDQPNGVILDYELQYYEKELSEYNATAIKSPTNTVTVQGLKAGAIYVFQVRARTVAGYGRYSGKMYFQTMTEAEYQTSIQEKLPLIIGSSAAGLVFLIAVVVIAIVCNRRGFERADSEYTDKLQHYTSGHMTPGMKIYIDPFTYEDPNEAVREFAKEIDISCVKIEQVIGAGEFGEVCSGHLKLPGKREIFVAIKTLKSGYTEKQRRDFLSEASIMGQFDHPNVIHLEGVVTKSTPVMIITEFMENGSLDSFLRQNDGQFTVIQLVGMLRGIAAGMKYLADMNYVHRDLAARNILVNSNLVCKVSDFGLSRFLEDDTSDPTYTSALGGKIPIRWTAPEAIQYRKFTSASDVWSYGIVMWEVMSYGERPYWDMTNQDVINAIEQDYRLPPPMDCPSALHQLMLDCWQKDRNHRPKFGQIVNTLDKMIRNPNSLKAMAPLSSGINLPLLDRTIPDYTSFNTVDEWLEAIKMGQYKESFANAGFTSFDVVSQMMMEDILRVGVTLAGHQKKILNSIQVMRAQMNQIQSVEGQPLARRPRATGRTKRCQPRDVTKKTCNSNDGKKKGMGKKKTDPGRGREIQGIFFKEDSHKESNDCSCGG
FGFR3, sequence (P22607 whole entry, looked up): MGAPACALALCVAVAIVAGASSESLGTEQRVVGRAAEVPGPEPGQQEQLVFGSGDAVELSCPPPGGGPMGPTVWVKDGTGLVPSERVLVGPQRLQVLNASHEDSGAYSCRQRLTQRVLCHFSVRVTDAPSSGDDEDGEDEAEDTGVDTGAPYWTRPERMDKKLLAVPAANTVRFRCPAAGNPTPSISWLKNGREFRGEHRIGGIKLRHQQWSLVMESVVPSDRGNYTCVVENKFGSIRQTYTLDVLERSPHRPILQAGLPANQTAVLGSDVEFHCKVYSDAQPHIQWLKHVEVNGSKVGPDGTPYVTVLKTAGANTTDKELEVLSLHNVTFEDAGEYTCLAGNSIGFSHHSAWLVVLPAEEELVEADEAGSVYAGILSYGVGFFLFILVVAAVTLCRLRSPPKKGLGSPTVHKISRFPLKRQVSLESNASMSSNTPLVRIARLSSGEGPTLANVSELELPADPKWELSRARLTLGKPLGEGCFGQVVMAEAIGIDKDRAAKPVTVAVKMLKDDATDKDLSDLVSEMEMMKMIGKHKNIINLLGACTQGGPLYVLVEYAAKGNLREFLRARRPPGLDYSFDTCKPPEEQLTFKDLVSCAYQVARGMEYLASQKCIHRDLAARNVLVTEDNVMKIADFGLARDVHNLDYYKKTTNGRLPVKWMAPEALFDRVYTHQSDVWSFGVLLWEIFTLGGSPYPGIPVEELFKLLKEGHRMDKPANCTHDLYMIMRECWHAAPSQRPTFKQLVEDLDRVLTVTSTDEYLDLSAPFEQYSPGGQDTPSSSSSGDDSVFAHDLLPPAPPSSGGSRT

Sequence | phosphorylation enrichment (c-Abl (mouse)) | phosphorylation enrichment (Jak2) | phosphorylation enrichment (EPHB2) | phosphorylation enrichment (FGFR3) | phosphorylation enrichment (Fer (mouse)) | phosphorylation enrichment (Fyn) | phosphorylation enrichment (Hck) | phosphorylation enrichment (c-Src) | phosphorylation enrichment (MERTK) | phosphorylation enrichment (FGFR1) | phosphorylation enrichment (AncSZ) | phosphorylation enrichment (Fes) | phosphorylation enrichment (EPHB1) | SH2 binding enrichment (c-Src SH2) | SH2 binding enrichment (Grb2 SH2) | SH2 binding enrichment (SHP2-C SH2)
KHCEDYVFSFN [DSC1_Y846_C848F_YF] | 0.791 | 1.04 | 0.739 | 1.84 | 0.562 | 0.472 | 0.499 | 1.75 | 0.471 | 1.82 | 1.75 | 1.21 | 0.776 | 0.55 | 0.941 | 0.817
SIFKDYFRFNF [PLA2G2D_Y85_YF] | 0.821 | 2.8 | 0.537 | 2.58 | 0.428 | 0.495 | 0.481 | 0.643 | 0.579 | 3.99 | 1.18 | 1.19 | 0.523 | 1.27 | 1.77 | 1.62
KRYRIYHLATS [BRCA2_Y3009] | 0.402 | 0.336 | 0.461 | 0.509 | 0.313 | 0.445 | 0.432 | 0.508 | 0.322 | 0.487 | 0.564 | 0.491 | 0.456 | 1.34 | 0.791 | 0.493
NFDRVYIFHLR [MYOF_Y1137_YF] | 0.91 | 1.18 | 0.559 | 0.897 | 0.523 | 0.414 | 0.473 | 0.615 | 0.46 | 0.535 | 1.19 | 1.19 | 0.545 | 1.21 | 1.59 | 1.66
LFEDHYLLGTS [ASS1_Y87_R86H_YF] | 0.662 | 1.15 | 0.586 | 0.707 | 0.569 | 0.783 | 0.566 | 1.01 | 0.384 | 0.494 | 1.27 | 1.15 | 0.618 | 0.534 | 1.22 | 0.634
PFTRNYYVQAV [CYBA_Y87_R90Q] | 1.12 | 1.17 | 0.706 | 1.9 | 0.555 | 0.46 | 0.446 | 0.615 | 1.25 | 1.99 | 1.03 | 1.1 | 0.787 | 1.19 | 0.981 | 3.28
HNLDYYKQTTN [FGFR3_Y648_K650Q] | 0.793 | 1.27 | 0.536 | 2.61 | 0.585 | 0.714 | 0.704 | 0.476 | 0.658 | 3.5 | 0.979 | 1.01 | 0.786 | 0.839 | 0.656 | 0.883
YLENYYDLKKD [MMP3_Y42] | 0.957 | 1.61 | 3.03 | 7.09 | 0.759 | 3.76 | 3.17 | 2.31 | 1.81 | 9.43 | 1.83 | 1.27 | 6.01 | 0.908 | 0.904 | 0.821
FETVKYINNER [ABCB7_Y345_F346I_YF] | 0.617 | 0.712 | 0.403 | 0.64 | 0.424 | 0.452 | 0.472 | 0.431 | 0.418 | 0.525 | 0.903 | 0.954 | 0.46 | 0.441 | 1.23 | 0.713
KEKLCYVAPDF [ACTA1_Y220_L223P] | 5.43 | 1.18 | 0.637 | 0.603 | 0.419 | 0.424 | 0.489 | 0.581 | 0.656 | 0.635 | 1.4 | 0.836 | 0.558 | 0.724 | 0.971 | 0.731
IFGVSYDEYRY [CFTR_Y512] | 0.638 | 0.882 | 0.504 | 0.664 | 0.496 | 0.644 | 0.617 | 1.27 | 0.434 | 0.688 | 0.932 | 1.05 | 0.557 | 1.36 | 0.776 | 0.896
DPYHVYIKNHV [KCNE3_Y95_R99H] | 0.685 | 0.798 | 0.459 | 0.533 | 0.45 | 0.981 | 0.705 | 2.34 | 0.399 | 0.447 | 0.845 | 0.826 | 0.467 | 0.939 | 0.804 | 0.779
FYDANYDGKEY [MAPRE2_Y162] | 0.712 | 1.14 | 1.23 | 0.796 | 0.627 | 0.642 | 0.83 | 0.941 | 1.17 | 0.699 | 1.22 | 1.37 | 0.63 | 0.725 | 0.823 | 0.473
IENKLCGMSDP [RET_Y1062_Y1062C] | 0.625 | 0.775 | 0.652 | 0.774 | 0.536 | 0.522 | 0.562 | 0.412 | 0.428 | 0.687 | 0.987 | 1.09 | 0.693 | 0.476 | 0.656 | 0.777
SVSVNYGDLVQ [GRAP_Y101_Q104L] | 0.61 | 0.728 | 0.557 | 0.633 | 0.54 | 0.506 | 0.476 | 0.419 | 0.42 | 0.565 | 0.745 | 0.855 | 0.516 | 0.479 | 0.824 | 0.695
LTELGYSFVTT [ACTA1_Y200_R198L] | 1.51 | 1.93 | 1.46 | 3.42 | 2.05 | 1.88 | 1.9 | 1.11 | 1.12 | 5.04 | 3.14 | 3.61 | 1.44 | 8.8 | 0.797 | 3.2
NKHTNYTMEHI [ACTN1_Y708] | 0.352 | 0.421 | 0.401 | 0.296 | 0.36 | 0.388 | 0.384 | 0.381 | 0.358 | 0.404 | 0.509 | 0.549 | 0.35 | 0.458 | 0.814 | 0.603

Sequence | phosphorylation enrichment (c-Abl (mouse)) | phosphorylation enrichment (Jak2) | phosphorylation enrichment (EPHB2) | phosphorylation enrichment (FGFR3) | phosphorylation enrichment (Fer (mouse)) | phosphorylation enrichment (Fyn) | phosphorylation enrichment (Hck) | phosphorylation enrichment (c-Src) | phosphorylation enrichment (MERTK) | phosphorylation enrichment (FGFR1) | phosphorylation enrichment (AncSZ) | phosphorylation enrichment (Fes) | phosphorylation enrichment (EPHB1) | SH2 binding enrichment (c-Src SH2) | SH2 binding enrichment (Grb2 SH2) | SH2 binding enrichment (SHP2-C SH2)
DRTGHYLCNAC [GATA1_Y223] | 0.575 | 0.885 | 0.676 | 0.449 | 0.408 | 0.389 | 0.489 | 0.469 | 0.499 | 0.349 | 0.691 | 0.769 | 0.389 | 0.503 | 0.792 | 0.595
SIKNKYVTALF [KCNH2_Y611_D609N_YF] | 0.487 | 0.566 | 0.459 | 0.507 | 0.371 | 0.402 | 0.465 | 0.41 | 0.41 | 0.417 | 0.672 | 0.653 | 0.394 | 0.671 | 0.994 | 1.06
VGQRPYQPLPE [REEP3_Y170] | 0.547 | 0.505 | 0.424 | 0.525 | 0.336 | 0.375 | 0.36 | 0.393 | 0.406 | 0.47 | 0.617 | 0.649 | 0.38 | 0.534 | 1.01 | 0.798
VNYGAYINNFK [GLB1_Y488_D491N] | 0.483 | 0.932 | 1.17 | 0.513 | 0.423 | 0.76 | 0.631 | 0.876 | 0.429 | 0.453 | 0.677 | 0.723 | 0.743 | 1.72 | 1.54 | 1.2
EAGKVYLKAPM [CBFB_Y96] | 0.504 | 0.669 | 0.524 | 0.609 | 0.411 | 0.492 | 0.496 | 0.434 | 0.602 | 0.433 | 0.754 | 0.939 | 0.443 | 0.503 | 0.956 | 0.609
EPTPGYEVGQR [TSC2_Y1788] | 0.602 | 0.672 | 0.585 | 0.591 | 0.545 | 0.51 | 0.566 | 0.507 | 0.491 | 0.514 | 0.863 | 0.907 | 0.472 | 0.6 | 0.812 | 0.677
FNDSAYNQQLI [ZPLD1_Y198_T197A_YF] | 0.485 | 0.5 | 0.383 | 0.451 | 0.326 | 0.393 | 0.455 | 0.421 | 0.297 | 0.338 | 0.641 | 0.672 | 0.489 | 0.431 | 0.705 | 0.423
KGIQLYDTPFE [SHB_Y297_YF] | 0.965 | 0.843 | 12.9 | 0.584 | 2.8 | 0.712 | 1.73 | 0.729 | 4.56 | 0.511 | 1.13 | 0.911 | 8.6 | 2.76 | 1.3 | 1.19
KQLGEYKFQNA [ALB_Y425_E420K] | 0.4 | 0.525 | 0.386 | 0.417 | 0.306 | 0.395 | 0.375 | 0.358 | 0.399 | 0.468 | 0.507 | 0.565 | 0.348 | 0.565 | 0.897 | 1.04
LTNDRYLATLT [IL6ST_Y396] | 1.58 | 0.97 | 0.709 | 0.586 | 0.568 | 0.746 | 0.463 | 0.533 | 0.597 | 0.676 | 0.761 | 1.07 | 0.625 | 0.541 | 1.04 | 0.722
RIILLYIFLKN [STXBP1_Y411] | 0.827 | 0.994 | 0.332 | 0.489 | 0.45 | 0.212 | 0.42 | 0.62 | 0.581 | 0.466 | 0.83 | 1.01 | 0.298 | 1.11 | 1.96 | 1.53
IVRSLYKDLED [VHL_Y185_E186K] | 0.691 | 0.877 | 0.559 | 0.688 | 0.688 | 0.535 | 0.479 | 0.445 | 0.496 | 0.502 | 1.25 | 1.19 | 0.497 | 0.785 | 0.999 | 0.716
DVFRQYASLRG [GANAB_Y379_T383R] | 0.459 | 0.504 | 0.435 | 0.41 | 0.295 | 0.393 | 0.404 | 0.399 | 0.384 | 0.453 | 0.482 | 0.625 | 0.329 | 1.57 | 0.842 | 31
EKHGQYLIGHG [EPHB4_Y581_D576E] | 0.543 | 0.555 | 0.408 | 0.5 | 0.381 | 0.42 | 0.475 | 0.396 | 0.46 | 0.503 | 0.618 | 0.719 | 0.413 | 0.381 | 0.792 | 0.664
LRVHSYKSMQP [DRC7_Y516] | 0.785 | 0.476 | 0.515 | 0.671 | 0.565 | 0.567 | 0.684 | 0.55 | 0.423 | 0.479 | 0.797 | 0.769 | 0.526 | 0.607 | 1.25 | 0.957
HSDYQYGQRSQ [PKP2_Y168_S169G] | 0.484 | 0.446 | 0.335 | 0.457 | 0.478 | 0.578 | 0.574 | 0.402 | 0.439 | 0.357 | 0.618 | 0.44 | 0.449 | 0.567 | 1.01 | 1.1
